From publication doi:10.1101/2023.03.28.534355 (bioRxiv, 2023)

How the values were obtained:
[1] = molecular target: GBP1 D308S/L309A/P310A (human) (UniProt P32455); assay: mass photometry
[2] = molecular target: human Guanylate-Binding Protein 1 (GBP1), full-length, non-farnesylated (human) (UniProt P32455); assay: mass photometry
[3] = molecular target: human Guanylate-Binding Protein 1 (GBP1), full-length, non-farnesylated (human) (UniProt P32455); assay: SEC-MALS
mass photometry = molecular target: the molecule itself; assay: mass photometry

Molecule: GBP1 D308S/L309A/P310A (from UniProt P32455 1-592) (enzyme)
- stoichiometry N [1]: 2

Molecule: human Guanylate-Binding Protein 1 (GBP1), full-length, non-farnesylated (from UniProt P32455 1-592) (enzyme)
- stoichiometry N [2]: 2
- stoichiometry N [3]: 2

B1: GBP1 D308S (enzyme)
chain: MASEIHMTGPMCLIENTNGRLMANPEALKILSAITQPMVVVAIVGLYRTGKSYLMNKLAGKKKGFSLGSTVQSHTKGIWMWCVPHPKKPGHILVLLDTEGLGDVEKGDNQNDSWIFALAVLLSSTFVYNSIGTINQQAMDQLYYVTELTHRIRSKSSPDENENEVEDSADFVSFFPDFVWTLRDFSLDLEADGQPLTPDEYLTYSLKLKKGTSQKDETFNLPRLCIRKFFPKKKCFVFDRPVHRRKLAQLEKLQDEELDPEFVQQVADFCSYIFSNSKTKTLSGGIQVNGPRLESLVLTYVNAISSGSLPCMENAVLALAQIENSAAVQKAIAHYEQQMGQKVQLPTETLQELLDLHRDSEREAIEVFIRSSFKDVDHLFQKELAAQLEKKRDDFCKQNQEASSDRCSALLQVIFSPLEEEVKAGIYSKPGGYRLFVQKLQDLKKKYYEEPRKGIQAEEILQTYLKSKESMTDAILQTDQTLTEKEKEIEVERVKAESAQASAKMLQEMQRKNEQMMEQKERSYQEHLKQLTEKMENDRVQLLKEQERTLALKLQEQEQLLKEGFQKESRIMKNEIQDLQTKMRRRKACTIS
- stoichiometry N (mass photometry): 2
